According to the supplement of paper PMC11908140:

B1: library; numbered along this chain (parent)
chain: MRKPRAAVGSGHRKQAASQEGRQKHAKNNSQAKPSACDGLARQPEEVVLQASVSSYHLFRDVAEVTAFRGSLLSWYDQEKRDLPWRRRAEDEMDLDRRAYAVWVSEVMLQQTQVATVINYYTGWMQKWPTLQDLASASLEEVNQLWAGLGYYSRGRRLQEGARKVVEELGGHMPRTAETLQQLLPGVGRYTAGAIASIAFGQATGVVDGNVARVLCRVRAIGADPSSTLVSQQLWGLAQQLVDPARPGDFNQAAMELGATVCTPQRPLCSQCPVESLCRARQRVEQEQLLASGSLSGSPDVEECAPNTGQCHLCLPPSEPWDQTLGVVNFPRKASRKPPREESSATCVLEQPGALGAQILLVQRPNSGLLAGLWEFPSVTWEPSEQLQRKALLQELQRWAGPLPATHLRHLGEVVHTFSHIKLTYQVYGLALEGQTPVTTVPPGARWLTQEEFHTAAVSTAMKKVFRVYQGQQPGTCMGSKRSQVSSPCSRKKPRMGQQVLDNFFRSHISTDAHSLNSAAQ

Variants of: B1
Assay: 8OG:A repair function score (normalized; synonymous = 0, nonsense = -1) (normalized log-likelihood score); higher = more repair activity (WT-like)
Conditions: with 8OG:A DNA repair reporter (GFP) in HEK-293 MUTYH KO cells
Procedure, shortened: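 Lentiviral MUTYH cDNA NNN codon-scan libraries in HEK-293 MUTYH knockout cells (10 pg/ml doxycycline) were co-transfected with an 8OG:A GFP repair reporter plus mCherry. At 72 h, viable mCherry+ cells were sorted into GFP+ (repair) and GFP− bins, three replicates per tile, then tile amplicons were sequenced. Per-tile Rosace fitness scores became a normalized repair function score anchored on synonymous and nonsense distributions. Synonymous medians were set to 0 and nonsense to -1; variants under 300 counts per million at the start were removed.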

8OG:A repair function score, by site and new letter:
W321: F -0.00541; E -0.0643; T -0.301; Y -0.123; C -0.313; L -0.0977; P -0.252; M -0.218; K -0.189; R -0.203; S -0.257; V -0.0988; I -0.25; Q -0.205; A -0.265; D -0.53; G -0.258
P320: Y -0.0806; G 0.00385; I -0.0716; K -0.1; R -0.0447; E -0.11; V -0.0867; N -0.0442; M -0.0571; W -0.179; T -0.0175; A -0.0474; D -0.134; F -0.0659; S -0.0238; H 0.0683; Q -0.104; C -0.000958; L -0.0348
S318: E 0.0139; T 0.116; K -0.0665; F -0.00953; P -0.26; D -0.0363; H -0.0534; A 0.0892; V -0.155; I 0.00356; R -0.0645; Y -0.0582; C -0.0155; N -0.0704; Q -0.0273; W 0.126; G -0.0532; L -0.0905
L315: T -0.0895; F -0.147; N -0.209; H -0.308; A -0.104; C -0.0705; Y 0.0406; P -0.0779; Q -0.193; S -0.102; D -0.206; I -0.0865; K -0.116; W -0.187; R -0.0162; V -0.0921; E -0.305; G -0.123; M 0.0419
E319: W -0.0166; C -0.02; L 0.0108; K -0.0997; T 0.123; P -0.228; R 0.0109; Q 0.0567; H -0.0143; M -0.0278; S 0.0138; N -0.0746; F -0.211; D -0.0309; V -0.0112; I -0.0159; Y -0.0495; A -0.00684; G -0.0752
P317: S 0.0611; H -0.0747; R 0.0296; I -0.0482; Q -0.121; C -0.0347; W -0.205; E -0.0108; M 0.112; F -0.125; T -0.0225; Y -0.0115; A -0.0112; N 0.0467; K -0.197; L -0.0676; V 0.0214; D -0.029; G -0.0274
D322: Y -0.0375; K 0.00699; M 0.0738; E 0.0971; F -0.0672; T -0.0961; C -0.00563; I 0.0378; L -0.0483; N -0.00231; P -0.322; R -0.044; Q -0.0416; V 0.0232; S -0.0836; A -0.0859; G -0.115; H -0.147; W -0.0845
Q323: T 0.0271; I -0.141; D 0.0164; K -0.0269; W -0.0368; A -0.0752; C -0.0398; H -0.0776; V -0.00203; M -0.0348; R -0.099; E -0.0118; P -0.0158; L -0.0798; N 0.061; S -0.0829; G -0.0264; F -0.0491
P316: M -0.238; W -0.331; Q 0.0822; A -0.176; L -0.126; E 0.0013; C -0.0546; G 0.00918; Y -0.161; R -0.109; I -0.253; S -0.123; D -0.0567; T -0.057; F -0.198; V -0.121; N -0.154; H -0.123; K -0.0182
